Data as given in PMC6527163, “Proteomic discovery of substrates of the cardiovascular protease ADAMTS7” (The Journal of Biological Chemistry, 2019).
One block for each binder: values may come before it.

Target: T1, ADAMTS7-T8 (human, UniProt Q9UKP4 237-1630)
T1 construct: signal peptide in the construct; human ADAMTS7 cDNA including the native signal peptide, truncated after Pro-1630 (T8); The construct is made as a zymogen; The stated enzyme concentrations are active protease, found by active-site titration with TIMP-4; also called purified ADAMTS7-T8; source: HEK cells stably expressing ADAMTS7-T8, conditioned medium, purified (anion exchange chromatography, gel …)
T1 sequence (looked up): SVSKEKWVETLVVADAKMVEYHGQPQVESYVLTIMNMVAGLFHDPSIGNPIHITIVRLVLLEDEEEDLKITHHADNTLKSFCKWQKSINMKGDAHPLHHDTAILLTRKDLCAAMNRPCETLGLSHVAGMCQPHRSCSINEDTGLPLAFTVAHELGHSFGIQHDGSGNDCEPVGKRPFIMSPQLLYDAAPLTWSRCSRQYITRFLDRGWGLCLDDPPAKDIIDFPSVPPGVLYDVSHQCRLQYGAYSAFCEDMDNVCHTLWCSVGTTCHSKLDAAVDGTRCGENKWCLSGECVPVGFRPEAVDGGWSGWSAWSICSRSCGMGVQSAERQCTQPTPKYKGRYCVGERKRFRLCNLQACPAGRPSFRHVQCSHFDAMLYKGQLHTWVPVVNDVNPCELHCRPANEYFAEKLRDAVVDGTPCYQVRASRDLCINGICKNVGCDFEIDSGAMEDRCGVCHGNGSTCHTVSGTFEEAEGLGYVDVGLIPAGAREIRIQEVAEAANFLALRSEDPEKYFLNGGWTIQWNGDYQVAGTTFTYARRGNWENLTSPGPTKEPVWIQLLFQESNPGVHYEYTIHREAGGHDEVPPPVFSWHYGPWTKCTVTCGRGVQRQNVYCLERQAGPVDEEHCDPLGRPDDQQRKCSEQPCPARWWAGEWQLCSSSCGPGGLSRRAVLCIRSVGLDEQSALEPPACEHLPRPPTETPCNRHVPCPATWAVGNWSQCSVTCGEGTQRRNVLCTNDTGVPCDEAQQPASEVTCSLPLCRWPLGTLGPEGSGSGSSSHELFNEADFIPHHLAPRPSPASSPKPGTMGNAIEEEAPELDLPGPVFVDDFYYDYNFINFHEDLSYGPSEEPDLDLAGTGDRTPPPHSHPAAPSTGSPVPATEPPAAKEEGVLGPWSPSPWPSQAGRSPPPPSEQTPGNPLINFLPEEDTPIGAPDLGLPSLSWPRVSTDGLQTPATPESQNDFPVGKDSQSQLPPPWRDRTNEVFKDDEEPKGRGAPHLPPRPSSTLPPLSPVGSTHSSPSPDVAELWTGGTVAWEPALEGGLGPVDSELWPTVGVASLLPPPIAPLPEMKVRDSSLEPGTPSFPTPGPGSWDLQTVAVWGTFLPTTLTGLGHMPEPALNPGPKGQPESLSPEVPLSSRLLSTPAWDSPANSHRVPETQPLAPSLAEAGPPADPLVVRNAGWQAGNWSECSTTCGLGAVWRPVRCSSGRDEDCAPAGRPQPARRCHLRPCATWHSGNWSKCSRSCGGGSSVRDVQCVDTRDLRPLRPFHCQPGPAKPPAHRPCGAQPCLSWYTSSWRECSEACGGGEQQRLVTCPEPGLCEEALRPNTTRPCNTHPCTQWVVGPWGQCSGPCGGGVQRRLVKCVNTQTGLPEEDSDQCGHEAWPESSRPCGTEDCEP
Assay: enzyme inhibition assay (densitometry of LTBP4S-A cleavage on SDS-PAGE/Coomassie Blue); apparent Ki; TIMP (1.75-60 nM) pre-incubated with ADAMTS7-T8 for 1 h at 37 °C, then 18 nM ADAMTS7 and 10 μM LTBP4S-A for 17 h at 37 °C; 20 mM Tris, pH 7.5, 150 mM NaCl, 10 mM CaCl2
Conditions: both partners purified

Ki: 49 nM
B1: TIMP-3 (natural protein, human, UniProt P35625 24-211, looked up)
chain: CTCSPSHPQDAFCNSDIVIRAKVVGKKLVKEGPFGTLVYTIKQMKMYRGFTKMPHVQYIHTEASESLCGLKLEVNKYQYLLTGRVYDGKMYTGLCNFVERWDQLTLSQRKGLNYRYHLGCNCKIKSCYYLPCFVTSKNECLWTDMLSNFGYPGYQSKHYACIRQKGGYCSWYRGWAPPDKSIINATDP
notes: recombinant human TIMP-3 (R&D Systems); No catalogue number or tags are stated; source: bought: R&D Systems (recombinant human)

Ki: 13 nM
B2: TIMP-4 (natural protein, human, UniProt Q99727 30-224, looked up)
chain: CSCAPAHPQQHICHSALVIRAKISSEKVVPASADPADTEKMLRYEIKQIKMFKGFEKVKDVQYIYTPFDSSLCGVKLEANSQKQYLLTGQVLSDGKVFIHLCNYIEPWEDLSLVQRESLNHHYHLNCGCQITTCYTVPCTISAPNECLWTDWLLERKLYGYQAQHYVCMKHVDGTCSWYRGHLPLRKEFVDIVQP
notes: recombinant human TIMP-4 (R&D Systems); No catalogue number or tags are stated; source: bought: R&D Systems (recombinant human)
